Experimental data reported in patent publication US20200247855A1, “THERAPY AND DIAGNOSTICS” (OXFORD UNIVERSITY INNOVATION LIMITED, priority 2017, published 2020).
“Also recorded” adds a separate entry of the source.

Key:
CXCL9_HUMAN = molecular target: T1, CXCL9_HUMAN (Homo sapiens, UniProt Q07325); test: Yeast surface display (YSD) FACS binding; conditions: FACS re-test; mean percent shift where several clones
T1 sequence (Q07325 23-125): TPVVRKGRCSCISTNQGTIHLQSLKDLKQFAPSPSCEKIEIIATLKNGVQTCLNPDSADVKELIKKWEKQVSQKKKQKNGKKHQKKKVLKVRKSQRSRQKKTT
Experimental: (§1) Table 1. Tick CKBPs described in PCT/GB2017/050563 and [17]. Tick peptide sequences isolated in yeast surface display fluorescent-activated cell sorting (FACS) screens using a labelled chemokine. Identity with Evasin-1, 4 or 3 was calculated using BLAST. Abbreviations: IXORI—Ixodes ricinus, RHISA—Rhipicephalus sanguineus, AMBMA—Amblyomma maculatum, AMBPA—Amblyomma parvum, AMBTR—Amblyomma triste, AMBAM—Amblyomma americanum, AMBCA—Amblyomma cajennense, RHIPU—Rhipicephalus pulchellus. Table 2A-C. Binding characteristics of tick CKBPs previously disclosed (PCT/GB2017/050563 and [17]). All members of the human chemokine family[164] are listed in column 1. Binding to human chemokines was determined for 14 tick CKBPs using biolayer interferometry (BLI) with calculated Kd shown as Molar (Moles/Litre). Binding data for 17 other novel tick CKBPs was assayed using yeast surface display[17,166],with positive binding results shown as “YES”. For biolayer interferometry, His-tagged purified tick CKBP was bound to a Ni-NINTA sensor on an OctetRed® 384 system, and then binding to each chemokine listed (with the exception of CCL25, CCL26, CXCL16, CXCL17, CXCL4L1, XCL2) was assayed in a cross-binding screen at a chemokine concentration of 300 nM as described. For those chemokines showing binding to a tick CKBP in the cross-binding screen, binding assays were repeated using different doses of chemokine. Association, equilibrium and dissociation data were analysed using Octet software to create corresponding fitted curves, and used to calculate Kd. For yeast surface display, (YSD) background fluorescence was controlled for by using either an empty vector or by omitting the chemokine (i.e. using streptavidin-Alexa647 alone). An arbitrary threshold of >3 fold over background mean fluorescence intensity was chosen to describe confirmed re-tests. Where binding was detected data are indicated as “YES”. […] For yeast surface display data, empty cells represent chemokines that were not tested. Binding data published in relation to previously described tick CKBPs (Evasins-1, 4 and 3) is also shown for comparison in each of FIGS. 2A-C, with the relevant data obtained from publications: [20-22,32]. Table 3: Neutralisation of human chemokines by tick CKBPs previously disclosed (PCT/GB2017/050563 and [17]). Neutralising activity was determined using a quantitative THP1 cell migration assay in a 96-well Boyden chamber with chemokine in the bottom chamber as described. Cells migrating through to the bottom chamber at 4 hours were counted using flow cytometry in a 96 well plate format. IC50 for neutralisation was determined at the chemokine EC80 dose as determined using a range of tick CKBP concentrations. Data was analysed using GraphPad Prism to determine IC50, which is shown as Molar (Moles/Litre). Empty cells represent experiments not done. Table 4—Other previously described tick CKBPs. Tick CKBPs that were also described in PCT/GB2017/050563 and Singh et al. are indicated in “Notes”. Table 5.—Novel tick CKBPs of the invention. Table 6. […] The peptide sequence prefix indicates the identity, and suffix indicate the tick species as follows: AMBCA, Amblyomma cajennense and IXORI, Ixodes ricinus. […] Certain tick peptides e.g. P1074_IXORI were recovered from screens performed with more than one chemokine. Individual yeast clones recovered from the library were re-tested using a FACS (fluorescence activated cell sorting), experiment. The binding of the peptide to the chemokine was assayed by measuring the percent (%), of yeast cells expressing the given peptide that exceeded a background threshold set by measuring the fluorescence of the yeast library pool treated with streptavidin-[…] alone. When more than one independent yeast clone was isolated for a given peptide-chemokine combination, the mean percent shift was calculated and reported in column 3. […]

CCL17_HUMAN = molecular target: T2, CCL17_HUMAN (Homo sapiens, UniProt Q92583); test: Yeast surface display (YSD) FACS binding
T2 sequence (Q92583 24-94): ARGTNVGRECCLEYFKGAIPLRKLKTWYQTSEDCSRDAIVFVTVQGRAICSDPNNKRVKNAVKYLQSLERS
Experimental: as §1

CCL20_HUMAN = CCL20_HUMAN (Homo sapiens, UniProt P78556); test: Yeast surface display (YSD) FACS binding
Experimental: as §1

CCL5_HUMAN = molecular target: T3, CCL5_HUMAN (Homo sapiens, UniProt P13501); test: Yeast surface display (YSD) FACS binding
T3 sequence (P13501 24-91): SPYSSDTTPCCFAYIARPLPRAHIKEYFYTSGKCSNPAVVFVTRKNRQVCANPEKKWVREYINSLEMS
Experimental: as §1

CXCL8_HUMAN = molecular target: T4, CXCL8_HUMAN (Homo sapiens, UniProt P10145); test: Yeast surface display (YSD) FACS binding; parameters: label (chemical); conditions: yeast surface display
T4 sequence (P10145 21-99): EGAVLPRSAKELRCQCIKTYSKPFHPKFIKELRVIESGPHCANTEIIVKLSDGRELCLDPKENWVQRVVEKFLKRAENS
Experimental: as §1

CXCL12_HUMAN = CXCL12_HUMAN (Homo sapiens, UniProt P48061); test: Yeast surface display (YSD) FACS binding; conditions: FACS re-test; mean percent shift where several clones
Experimental: as §1

CCL11_HUMAN = CCL11_HUMAN (Homo sapiens, UniProt P51671); test: Biolayer interferometry (BLI) binding
Experimental: as §1

CCL13_HUMAN = CCL13_HUMAN (Homo sapiens, UniProt Q99616); test: Biolayer interferometry (BLI) binding
Experimental: as §1

CCL14_HUMAN = molecular target: T5, CCL14_HUMAN (Homo sapiens, UniProt Q16627); test: Biolayer interferometry (BLI) binding
T5 sequence (Q16627 20-93): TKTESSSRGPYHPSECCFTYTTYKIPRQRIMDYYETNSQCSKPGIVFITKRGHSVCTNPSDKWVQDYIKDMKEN
Experimental: as §1

CCL16_HUMAN = molecular target: T6, CCL16_HUMAN (Homo sapiens, UniProt O15467); test: Biolayer interferometry (BLI) binding
T6 sequence (O15467 24-120): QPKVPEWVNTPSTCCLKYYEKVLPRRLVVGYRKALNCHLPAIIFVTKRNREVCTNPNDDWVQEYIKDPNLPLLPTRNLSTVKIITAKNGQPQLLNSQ
Experimental: as §1

CCL18_HUMAN = molecular target: T7, CCL18_HUMAN (Homo sapiens, UniProt P55774); test: Biolayer interferometry (BLI) binding
T7 sequence (P55774 21-89): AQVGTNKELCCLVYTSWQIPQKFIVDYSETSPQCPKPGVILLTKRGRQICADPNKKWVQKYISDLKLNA
Experimental: as §1

CCL1_HUMAN = molecular target: T8, CCL1_HUMAN (Homo sapiens, UniProt P22362); test: Biolayer interferometry (BLI) binding
T8 sequence (P22362 24-96): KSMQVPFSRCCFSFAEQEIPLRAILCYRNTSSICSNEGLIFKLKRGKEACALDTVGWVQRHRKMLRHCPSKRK
Experimental: as §1

CCL2_HUMAN = CCL2_HUMAN (Homo sapiens, UniProt P13500); test: Biolayer interferometry (BLI) binding
Experimental: as §1

CCL3L1_HUMAN = CCL3L1_HUMAN (Homo sapiens, UniProt P16619); test: Biolayer interferometry (BLI) binding
Experimental: as §1

CCL3_HUMAN = molecular target: T9, CCL3_HUMAN (Homo sapiens, UniProt P10147); test: Biolayer interferometry (BLI) binding
T9 sequence (P10147 24-92): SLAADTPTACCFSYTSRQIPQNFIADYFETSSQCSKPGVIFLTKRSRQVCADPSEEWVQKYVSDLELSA
Experimental: as §1

CCL4L1_HUMAN = molecular target: T10, CCL4L1_HUMAN (Homo sapiens, UniProt Q8NHW4); test: Biolayer interferometry (BLI) binding
T10 sequence (Q8NHW4 24-92): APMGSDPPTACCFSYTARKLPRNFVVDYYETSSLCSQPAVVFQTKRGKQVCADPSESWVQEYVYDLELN
Experimental: as §1

CCL4_HUMAN = molecular target: T11, CCL4_HUMAN (Homo sapiens, UniProt P13236); test: Biolayer interferometry (BLI) binding
T11 sequence (P13236 24-92): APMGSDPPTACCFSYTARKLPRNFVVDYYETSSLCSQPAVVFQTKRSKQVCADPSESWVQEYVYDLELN
Experimental: as §1

CCL7_HUMAN = CCL7_HUMAN (Homo sapiens, UniProt P80098); test: Biolayer interferometry (BLI) binding
Experimental: as §1

CCL8_HUMAN = molecular target: T12, CCL8_HUMAN (Homo sapiens, UniProt P80075); test: Biolayer interferometry (BLI) binding; conditions: read-out: Kd, CCL8_HUMAN
T12 sequence (P80075 24-99): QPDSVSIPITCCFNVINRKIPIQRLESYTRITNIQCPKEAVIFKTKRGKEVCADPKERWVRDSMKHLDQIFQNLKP
Experimental: as §1

chemokines = conditions: list of chemokines bound, from the literature [18,20-22]; cited from earlier work

CCL20_HUMAN, sequence (P78556 27-96): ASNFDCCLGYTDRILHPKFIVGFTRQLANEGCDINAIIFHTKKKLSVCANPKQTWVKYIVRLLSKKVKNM
CCL11_HUMAN, sequence (P51671 24-97): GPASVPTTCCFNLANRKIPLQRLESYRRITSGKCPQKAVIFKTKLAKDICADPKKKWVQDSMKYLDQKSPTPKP
CXCL12_HUMAN, sequence (P48061 22-93): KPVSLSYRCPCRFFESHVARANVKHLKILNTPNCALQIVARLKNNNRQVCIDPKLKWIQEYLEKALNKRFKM
CCL2_HUMAN, sequence (P13500 24-99): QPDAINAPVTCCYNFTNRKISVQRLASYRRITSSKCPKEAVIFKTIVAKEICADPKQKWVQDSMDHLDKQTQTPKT
CCL7_HUMAN, sequence (P80098 24-99): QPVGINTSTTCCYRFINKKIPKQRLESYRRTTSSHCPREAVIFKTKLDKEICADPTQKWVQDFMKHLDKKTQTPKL
CCL3L1_HUMAN, sequence (P16619 24-93): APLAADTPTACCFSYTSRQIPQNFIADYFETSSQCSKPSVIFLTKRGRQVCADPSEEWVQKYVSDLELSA
CCL13_HUMAN, sequence (Q99616 17-98): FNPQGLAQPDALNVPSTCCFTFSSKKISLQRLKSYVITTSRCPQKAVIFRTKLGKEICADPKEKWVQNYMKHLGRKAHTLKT

B1: P1126_AMBCA: novel CXC-binding tick CKBP, Amblyomma cajennense (protein)
chain: KPQILQRTDKSTDSEWDPQTCPETCIPSKNITCSDGCVCVKLGEEEEGTCFNMTGVDWLGSPSDD
modifications: Amblyomma cajennense
Chemokines bound in yeast surface display and % cells over threshold fluorescence: CXCL9_HUMAN (CXCL9_HUMAN): CXCL9_HUMAN 56%

B2: P1100_IXORI: novel CXC-binding tick CKBP, Ixodes ricinus (protein, listed as Ixodes ricinus)
chain: GSKGSSASQSSDNSVVAKFCDTNCTINEGGKWTECKGGCFCVHVGNETVGRCMKLDGDYDYPSPKPEE
Chemokines bound in yeast surface display and % cells over threshold fluorescence: CXCL9_HUMAN (CXCL9_HUMAN): CXCL9_HUMAN 55%

B3: P993_AMBPA: tick CKBP, Amblyomma parvum (protein, listed as Amblyomma parvum)
chain: HRHYDPNEPCLIAGLKTPRDALPAGCRYDCMIKKNQKLRDGLLCLDVPEKVVKRMVNYLNYSCPLGTCRKGICKRKHRNVRCQKYPVFYMSPPK
Binding to CCL17_HUMAN, YSD (CCL17_HUMAN): YES (An arbitrary threshold of >3 fold over background mean fluorescence intensity was chosen to describe confirmed re-tests. Where binding was detected data are indicated as “YES”)
Binding to CCL20_HUMAN, YSD (CCL20_HUMAN): YES (An arbitrary threshold of >3 fold over background mean fluorescence intensity was chosen to describe confirmed re-tests. Where binding was detected data are indicated as “YES”)
Binding to CCL5_HUMAN, YSD (CCL5_HUMAN): YES (An arbitrary threshold of >3 fold over background mean fluorescence intensity was chosen to describe confirmed re-tests. Where binding was detected data are indicated as “YES”)
Binding to CXCL8_HUMAN, YSD (CXCL8_HUMAN): YES (An arbitrary threshold of >3 fold over background mean fluorescence intensity was chosen to describe confirmed re-tests. Where binding was detected data are indicated as “YES”)

B4: P1080_IXORI: novel CXC-binding tick CKBP, Ixodes ricinus (protein, listed as Ixodes ricinus)
chain: SAGSKGSSAPQSSGDSVVAEFCDTNCTMKKDGKWTECNGDCFCVHVGNETVGRCMRLDGDYDYTSSKTTRRNKKTRNGLCRLDRNRTTVDYPERNTREP
Chemokines bound in yeast surface display and % cells over threshold fluorescence: CXCL12_HUMAN (CXCL12_HUMAN): CXCL12_HUMAN 53%;
Chemokines bound in yeast surface display and % cells over threshold fluorescence: CXCL9_HUMAN (CXCL9_HUMAN): CXCL9_HUMAN 49%

B5: P467_RHIPU: tick CKBP (evasin), Rhipicephalus pulchellus; RPU-01 stated identical (protein, listed as Rhipicephalus pulchellus)
chain: AEKSLDSDSSGEDYELWTQGCPFLVAENRTGFGTTVSCQHNCNGAIEKVPEGEPCYTIGEDGLGRMKLNLPYNCSLGECSGGVCVPNGRSDVCFKRTWEENNKAMA
Kd (CCL11_HUMAN): 1.4 nM
Kd (CCL13_HUMAN): 2.56 nM
Kd (CCL14_HUMAN): 4.13 nM
Kd (CCL16_HUMAN): 14.1 nM
Kd (CCL18_HUMAN): 16.6 nM
Kd (CCL1_HUMAN): 53.4 nM
Kd (CCL2_HUMAN): 0.001 nM
Kd (CCL3L1_HUMAN): 0.524 nM
Kd (CCL3_HUMAN): 0.363 nM
Kd (CCL4L1_HUMAN): 4.72 nM
Kd (CCL4_HUMAN): 13.6 nM
Kd (CCL7_HUMAN): 2.15 nM
Kd (CCL8_HUMAN): 2.85 nM
Previously described chemokine binding (chemokines): CCL11, CCL24,; also recorded: CCL26, CCL2,; also recorded: CCL8, CCL7

B6: P1252_AMBAM: tick CKBP, Amblyomma americanum (protein, listed as Amblyomma americanum)
chain: RGGAASVPANASIPGCGDAQTTPAAPEDQPKHYVVYRDGNGCEVKIIGTWMTTEDYNCLPDTFRKNRAPHGKVKLPASCKKTCGNAVQNLKDGTPCRKVFGDLGRRRNLIKNGCLVGACQSGLCVSGNRTISCYIPPNSTDTRATPGSFAE
Binding to CCL17_HUMAN, YSD (CCL17_HUMAN): YES (An arbitrary threshold of >3 fold over background mean fluorescence intensity was chosen to describe confirmed re-tests. Where binding was detected data are indicated as “YES”)
Binding to CCL20_HUMAN, YSD (CCL20_HUMAN): YES (An arbitrary threshold of >3 fold over background mean fluorescence intensity was chosen to describe confirmed re-tests. Where binding was detected data are indicated as “YES”)

B7: P1074_IXORI: novel CXC-binding tick CKBP, Ixodes ricinus (protein, listed as Ixodes ricinus)
chain: GSKESSAHQSSDDSIKAEFCDAKCTMKTDGKWTQCHGGCFCVHVGNETEGRCMRLDGDYDYPSTQPEE
Chemokines bound in yeast surface display and % cells over threshold fluorescence: CXCL9_HUMAN (CXCL9_HUMAN): CXCL9_HUMAN 35%

B8: P458_IXORI: novel CXC-binding tick CKBP, Ixodes ricinus (protein, listed as Ixodes ricinus)
chain: GSKQPGAAGSSSDSVEAVFCPTNCTKGTNGAWSGCSDDCICVHVGENTEGSCMKFSGDYDYPTPEA
Chemokines bound in yeast surface display and % cells over threshold fluorescence: CXCL9_HUMAN (CXCL9_HUMAN): CXCL9_HUMAN 37%
